{
  "source": "patent US20090148907A1",
  "about": "“NOVEL FRUCTOFURANOSIDASE ACTIVITY FOR OBTAINING THE PREBIOTIC OLIGOSACCHARIDE 6-KESTOSE” (CONSEJO SUPERIOR DE INVESTIGACIONES CIENTIFICAS, priority 2005, published 2009)",
  "molecules": {"B1": {"name": "F-3: purified fructofuranosidase of S. occidentalis with transfructosidase activity, SEQ. ID. NO: 1, 535 amino acids (protein, listed as Debaryomyces occidentalis)", "chain": "MVQVLSVLVIPLLTLFFGYVASSSIDLSVDTSEYNRPLIHFTPEKGWMNDPNGLFYDKTAKLWHLYFQYNPNATAWGQPLYWGHATSNDLVHWDEHEIAIGPEHDNEGIFSGSIVVDHNNTSGFFNSSIDPNQRIVAIYTNNIPDLQTQDIAFSLDGGYTFTKYENNPVIDVSSNQFRDPKVFWHEDSNQWIMVVLKSQEYKIQIFGSANLKNWVLNSNFSSGYYGNQYECPGLIEVPIENSDKSKWVMFLAINPGSPLGGSINQYFVGDFDGFQFVPDDSQTRFVDIGKDFYAFQTFSEVEHGVLGLAWASNWQYADQVPTNPWRSSTSLARNYTLRYVHTNAETKQLTLIQNPVLPDSINVVDKLKKKNVKLTNKKPIKTNFKGSTGLFDFNITFKVLNLNVSPGKTHFDILINSQELNSSVDSIKIGFDSSQSSFYIDRHIPNVEFPRKQFFTDKLAAYLEPLDYDQDLRVFSLYGIVDKNIIELYFNDGTVAMTNTFFMGEGKYPHDIQIVTDTEEPLFELESVIIRELNK"}},
  "assay_type_in_all_cases": "biochemical",
  "key": {"[1]": {"assay": "Fructofuranosidase activity of fractions during purification", "conditions": "eluted at 0.2 M of salt, DEAE-Sephacel pH 5", "experimental": "The cell free fraction was obtained by centrifugation (F-0) of a culture of S. occidentalis ATCC26077 grown at 29° C. and 235 rpm. Fructofuranosidase activity was assayed in the latter, determining the glucose release on different substrates. A colorimetric assay and the standard methodology were used. The released glucose was quantified using the glucose oxidase-peroxidase coupled reaction: 0.4 ml of the solution to be determined was mixed with 0.1 ml of A:B (20:1) solution (A: 0.85 U/ml glucose oxidase, 0.40 U/ml peroxidase in sodium phosphate buffer pH 5; B: 0.6% O-dianisidine). It was incubated for 30 minutes at 37° C. and spectrophotometrically quantified at 450 nm. A standard glucose curve (0 to 100 μg/ml) was used. The fructofuranosidase activity unit is defined in μmol/ml min of glucose determined in the described conditions.\nFor the purification of the enzyme, 2 liters of extracellular fraction of S. occidentalis, with a fructofuranosidase activity of 0.58 U/ml, were used to begin. The following method was used:\n1) Concentration of the extracellular fraction using a tangential filtration system (30 kDa fitter) followed by dialysis against 20 mM HCl-Tris pH 7 (buffer A) for 2 hours at a temperature of 4° C. […]\n3) Ion exchange chromatography to pH 5. […] The fructofuranosidase activity determined as previously indicated eluted at 0.2 M of salt and was 0.33 U (F-3)."}, "[2]": {"biological_target": "T1, fructofuranosidase of S. occidentalis (pure enzyme F-3) (Schwanniomyces occidentalis, UniProt P24133)", "T1 construct": "the enzyme object of the invention is extracellularly released; endogenous in cells; host or cells: Schwanniomyces occidentalis culture supernatant; concentrated (F-1), then DEAE-Sephacel at pH 7 (F-2) and at pH 5 (F-3)", "T1 sequence (P24133 whole entry, looked up)": "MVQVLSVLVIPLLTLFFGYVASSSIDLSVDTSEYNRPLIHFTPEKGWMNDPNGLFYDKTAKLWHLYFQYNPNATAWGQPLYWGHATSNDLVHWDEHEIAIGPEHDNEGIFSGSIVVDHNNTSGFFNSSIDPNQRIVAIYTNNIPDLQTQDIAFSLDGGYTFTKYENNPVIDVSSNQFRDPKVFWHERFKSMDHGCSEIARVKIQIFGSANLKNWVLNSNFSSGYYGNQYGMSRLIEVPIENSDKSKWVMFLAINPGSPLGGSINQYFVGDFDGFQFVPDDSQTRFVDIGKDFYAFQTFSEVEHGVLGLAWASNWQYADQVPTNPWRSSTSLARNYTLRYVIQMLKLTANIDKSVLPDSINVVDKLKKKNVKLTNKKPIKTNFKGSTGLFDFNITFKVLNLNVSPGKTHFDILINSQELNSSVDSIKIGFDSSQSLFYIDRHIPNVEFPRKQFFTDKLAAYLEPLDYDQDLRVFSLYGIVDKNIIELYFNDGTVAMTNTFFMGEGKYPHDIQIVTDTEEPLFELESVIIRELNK", "assay": "Transfructosidase (transglycosylation) activity of pure enzyme F-3 on sucrose, HPLC", "conditions": "after 144 hours at 50° C, high sucrose concentration", "experimental": "The transglycosylation activity of the pure enzyme (fraction F-3) was assayed. A reaction was prepared using a high concentration of sucrose (510 g/l) and a final enzymatic activity in the reaction mixture of approximately 0.5 U/ml. […] It is seen that the profile of the obtained products is very similar in both cases, specifically the 6-kestose/1-kestose ratio that was obtained was 3.3.\nAfter 144 hours of reaction, 42.6 g/l of FOS were obtained. The total percentage (w/w) of fructooligosaccharides was 8.4% this value being with respect to the total weight of carbohydrates in the medium.\nA high concentration solution of sucrose ([…]) in 0.2 M sodium acetate buffer pH 5.6 was prepared. The fructofuranosidase was added until a final concentration in the reaction mixture of 0.5 U/ml (one unit U is the enzymatic activity corresponding to releasing a micromole of reducing sugars per minute, using 100 g/l of sucrose as substrate, in 0.2 M sodium acetate buffer pH 5.6, at 50° C.). The reaction mixture was incubated for 144 hours at 50° C., with orbital stirring at 700 rpm. Aliquots were extracted at different times, incubated for 5 minutes at 80° C. to inactivate the enzyme, diluted 1:2 (v/v) with water centrifuged for 5 minutes at 6000 rpm in an eppendorf tube with a 0.45 μm filter and analyzed by HPLC liquid chromatography. The profile of the products formed is seen in FIG. 7. Two trisaccharides were obtained: a majority trisaccharide, identified as 6-kestose, and another minority trisaccharide, identified as 1-kestose. At the final reaction time (144 h), the composition of the system was: 12.7% fructose, 14.80/glucose. 64.1% sucrose, 2.4% 1-kestose and 5.9% 6-kestose)."}, "[3]": {"assay": "Fructofuranosidase activity at different pH and temperatures", "conditions": "solution of pure protein, on sucrose", "experimental": "The fructofuranosidase activity was assayed at different pH and temperatures. Maximum activity levels were obtained in a pH range comprised, between 5 and 6 units at 50° C. and at a temperature of 40 and 55° C.\nFIG. 3 indicates the enzymatic activity in function of the pH and of the temperature, showing the corresponding maximums. The assays were performed on sucrose using a solution of pure protein. 100% corresponds to an activity of 5.59 U/ml. FIG. 3A: fructofuranosidase activity was determined at different pHs (3-9 pH units), an assay temperature of 50° C. and sodium citrate, sodium phosphate and HCl-Tris buffer (all of them 100 mM) for the pH range of 3-4.5, 5.0-7.5 and 8.0-9.0, respectively. FIG. 3B: the temperature assay (30-70° C.) was performed in 50 mM sodium phosphate pH 5.5."}},
  "data": [
    {"molecule": "B1", "values": [
      {"measurement": "Fructofuranosidase activity", "setting": "[1]", "value": 0.33, "unit": "U"},
      {"measurement": "Transfructosidase activity retained (in words)", "setting": "[2]", "value": "still maintains transfructosidase activity"},
      {"measurement": "Activity corresponding to 100% in FIG. 3", "setting": "[3]", "value": 5.59, "unit": "U/ml"}
    ]}
  ]
}
